In assay [1] the target is RelAp43, Nluc- or YFP-tagged (BRET). Kind of assay: FRET or BRET. (In general: BRET reads energy transfer from a luciferase to a nearby fluorophore.)
The target of assay [2] is TPL2, Nluc- or YFP-tagged (BRET) (human) (UniProt P41279). Kind of assay: FRET or BRET.
The target of assay [3] is ABIN2, Nluc- or YFP-tagged (BRET) (human) (UniProt Q8NFZ5). Kind of assay: FRET or BRET.
The target in assay [4] is T1, TPL2, Nluc- or YFP-tagged (BRET) (human, UniProt P41279-1 1-467).
T1 construct: also called MAP3K8
T1 sequence (P41279 whole entry): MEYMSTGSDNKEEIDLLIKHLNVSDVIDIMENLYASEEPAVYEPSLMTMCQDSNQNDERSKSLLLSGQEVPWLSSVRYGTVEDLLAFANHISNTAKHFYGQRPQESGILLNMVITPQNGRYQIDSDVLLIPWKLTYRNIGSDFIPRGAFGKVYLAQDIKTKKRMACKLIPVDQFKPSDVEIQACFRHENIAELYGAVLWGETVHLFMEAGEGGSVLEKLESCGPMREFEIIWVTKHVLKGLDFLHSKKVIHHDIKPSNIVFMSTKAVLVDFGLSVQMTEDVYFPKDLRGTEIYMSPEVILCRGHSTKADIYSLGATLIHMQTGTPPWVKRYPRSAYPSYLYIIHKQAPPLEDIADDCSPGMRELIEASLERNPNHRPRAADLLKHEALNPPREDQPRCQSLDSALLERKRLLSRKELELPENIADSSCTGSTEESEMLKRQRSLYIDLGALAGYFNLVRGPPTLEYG
Kind of assay: FRET or BRET. The following applies: partners not purified.

For assay [5], the target named is T2, p105, Nluc- or YFP-tagged (BRET) (UniProt P19838 1-968).
T2 construct: also called NFκB1(p105/p50)
T2 sequence (looked up): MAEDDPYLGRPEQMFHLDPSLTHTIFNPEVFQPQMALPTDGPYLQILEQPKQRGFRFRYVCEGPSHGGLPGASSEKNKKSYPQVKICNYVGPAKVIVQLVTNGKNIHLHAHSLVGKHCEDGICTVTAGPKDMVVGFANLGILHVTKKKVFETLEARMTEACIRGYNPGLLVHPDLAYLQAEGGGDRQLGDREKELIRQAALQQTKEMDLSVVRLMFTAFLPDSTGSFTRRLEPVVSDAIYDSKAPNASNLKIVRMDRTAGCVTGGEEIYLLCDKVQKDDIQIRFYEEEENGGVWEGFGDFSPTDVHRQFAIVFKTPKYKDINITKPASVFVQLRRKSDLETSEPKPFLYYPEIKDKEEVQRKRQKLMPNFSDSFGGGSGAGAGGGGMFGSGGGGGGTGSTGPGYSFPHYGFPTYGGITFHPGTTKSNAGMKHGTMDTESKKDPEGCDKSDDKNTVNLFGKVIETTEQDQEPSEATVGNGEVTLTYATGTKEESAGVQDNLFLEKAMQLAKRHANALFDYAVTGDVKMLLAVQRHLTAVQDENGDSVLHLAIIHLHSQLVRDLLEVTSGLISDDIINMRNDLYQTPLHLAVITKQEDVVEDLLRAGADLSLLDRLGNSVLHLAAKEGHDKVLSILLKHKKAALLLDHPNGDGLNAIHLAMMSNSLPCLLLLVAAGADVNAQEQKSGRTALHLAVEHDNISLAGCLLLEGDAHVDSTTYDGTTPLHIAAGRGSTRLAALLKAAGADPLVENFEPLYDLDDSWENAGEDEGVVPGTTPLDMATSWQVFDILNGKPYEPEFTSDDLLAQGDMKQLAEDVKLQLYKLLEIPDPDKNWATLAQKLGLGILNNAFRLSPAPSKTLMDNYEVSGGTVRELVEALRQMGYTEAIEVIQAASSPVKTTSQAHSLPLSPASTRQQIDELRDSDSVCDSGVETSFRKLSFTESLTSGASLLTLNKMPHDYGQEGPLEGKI
As to the kind of experiment: FRET or BRET. Particulars: partners not purified.

Assay [6] concerns the target TPL2, Glu1- or Glu2-tagged (PCA) (human, UniProt P41279-1 1-467). Kind of assay: split reporter (BiFC, NanoBiT). The following applies: partners not purified.

“And” between values parts separate entries of the source, which are not always exact repeats. Equal values may be shown once. Where only a bound is given, the exact number is not on record here.

The values below come from publication PMC5679641 (PLoS Pathogens, 2017).

Sequence of RelAp43, Nluc- or YFP-tagged (BRET) (Q04206 whole entry): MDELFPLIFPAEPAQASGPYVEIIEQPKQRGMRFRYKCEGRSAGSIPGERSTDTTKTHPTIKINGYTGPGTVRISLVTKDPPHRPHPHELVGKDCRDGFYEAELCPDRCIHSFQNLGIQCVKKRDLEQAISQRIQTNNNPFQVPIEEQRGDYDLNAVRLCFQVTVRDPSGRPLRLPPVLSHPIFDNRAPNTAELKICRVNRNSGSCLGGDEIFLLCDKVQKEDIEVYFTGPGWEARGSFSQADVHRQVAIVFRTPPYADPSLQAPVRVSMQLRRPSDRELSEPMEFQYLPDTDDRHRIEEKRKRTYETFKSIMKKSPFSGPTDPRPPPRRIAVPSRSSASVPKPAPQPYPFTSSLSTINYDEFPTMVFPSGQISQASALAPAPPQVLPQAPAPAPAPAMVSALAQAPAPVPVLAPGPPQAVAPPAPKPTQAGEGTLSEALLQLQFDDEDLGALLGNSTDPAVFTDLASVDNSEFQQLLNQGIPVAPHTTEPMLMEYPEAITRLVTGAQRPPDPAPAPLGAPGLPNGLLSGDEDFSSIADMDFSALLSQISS
Sequence of TPL2, Glu1- or Glu2-tagged (PCA) (P41279 whole entry): as the sequence (P41279 whole entry) above
Sequence of TPL2, Nluc- or YFP-tagged (BRET) (human) (P41279 whole entry): as above

As to “MTha, YFP-tagged (BRET) (natural protein)”, the netBRET in assay [1] was 0.022 to 0.109; in assay [2], greater than 0.05. For the molecule “p105, Nluc- or YFP-tagged (BRET) (from UniProt P19838 1-968) (natural protein)”, the netBRET in assay [1] was greater than 0.05. “MSAD, YFP-tagged (BRET) (from UniProt P16287 1-202) (natural protein)”: in assay [3], the netBRET was 0.022 and 0.063. In turn, “p50, Nluc- or YFP-tagged (BRET) (domain or fragment)” gave a netBRET in assay [1] greater than 0.05.

B1: MSAD, YFP-tagged (BRET) (natural protein)
chain: MNLLRKIVKNRRDEDTQKSSPASAPLDDDDLWLPPPEYVPLKELTGKKNMRNFCINGRVKVCSPNGYSFRILRHILKSFDEIYSGNHRMIGLVKVVIGLALSGSPVPEGLNWVYKLRRTFIFQWADSRGPLEGEELEYSQEITWDDDTEFVGLQIRVIAKQCHIQGRVWCINMNPRACQLWSDMSLQTQRSEEDKDSSLLLE
On to B1, for which, in assay [4], the netBRET was greater than 0.05.

B2: ABIN2, Nluc- or YFP-tagged (BRET) (natural protein, human, UniProt Q8NFZ5-1 1-429, looked up)
chain: MSRDPGSGGWEEAPRAAAALCTLYHEAGQRLRRLQDQLAARDALIARLRARLAALEGDAAPSLVDALLEQVARFREQLRRQEGGAAEAQMRQEIERLTERLEEKEREMQQLLSQPQHEREKEVVLLRRSMAEGERARAASDVLCRSLANETHQLRRTLTATAHMCQHLAKCLDERQHAQRNVGERSPDQSEHTDGHTSVQSVIEKLQEENRLLKQKVTHVEDLNAKWQRYNASRDEYVRGLHAQLRGLQIPHEPELMRKEISRLNRQLEEKINDCAEVKQELAASRTARDAALERVQMLEQQILAYKDDFMSERADRERAQSRIQELEEKVASLLHQVSWRQDSREPDAGRIHAGSKTAKYLAADALELMVPGGWRPGTGSQQPEPPAEGGHPGAAQRGQGDLQCPHCLQCFSDEQGEELLRHVAECCQ
notes: also called TNIP2
Regarding B2, the netBRET is less than 0.05 in assay [5] and 0.093 in assay [4].

B3: ABIN2, Glu1- or Glu2-tagged (PCA) (natural protein, human, UniProt Q8NFZ5-1 1-429, looked up)
chain: B2 chain
Molecule B3 returned an other in assay [6] of 0.86.
